We go through 1 variant from IntAct's records for PubMed 25680527.

Sequences and labels used below:
B1: Pirin (Homo sapiens), O00625 (parent)
chain: MGSSKKVTLSVLSREQSEGVGARVRRSIGRPELKNLDPFLLFDEFKGGRPGGFPDHPHRGFETVSYLLEGGSMAHEDFCGHTGKMNPGDLQWMTAGRGILHAEMPCSEEPAHGLQLWVNLRSSEKMVEPQYQELKSEEIPKPSKDGVTVAVISGEALGIKSKVYTRTPTLYLDFKLDPGAKHSQPIPKGWTSFIYTISGDVYIGPDDAQQKIEPHHTAVLGEGDSVQVENKDPKRSHFVLIAGEPLREPVIQHGPFVMNTNEEISQAILDFRNAKNGFERAKTWKSKIGN
partner: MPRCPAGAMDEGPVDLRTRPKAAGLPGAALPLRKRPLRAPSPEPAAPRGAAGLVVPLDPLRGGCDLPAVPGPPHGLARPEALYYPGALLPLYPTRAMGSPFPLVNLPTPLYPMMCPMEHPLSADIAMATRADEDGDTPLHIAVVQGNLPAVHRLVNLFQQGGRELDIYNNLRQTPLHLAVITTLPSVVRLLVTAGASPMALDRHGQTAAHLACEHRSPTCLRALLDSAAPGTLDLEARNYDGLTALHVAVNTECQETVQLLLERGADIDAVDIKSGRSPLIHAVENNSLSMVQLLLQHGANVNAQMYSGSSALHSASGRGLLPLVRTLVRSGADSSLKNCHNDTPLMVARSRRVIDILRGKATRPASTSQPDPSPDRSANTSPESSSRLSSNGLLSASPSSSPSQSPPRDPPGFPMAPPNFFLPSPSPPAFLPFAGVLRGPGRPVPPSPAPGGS

Variants of B1 are the subject of the assay. The conditions noted are these: with bcl3_human BCL3, P20749.
In the case of MGSSKKVTLSVLSREQSEGVGARVRRSIGRPELKNLDPFLLFDEFKGGRPGGFPDHPHRGFETVSYLLEGGSMAHEDFCGHTGKMNPGDLQWMTAGRGILHAAMPCSEEPAHGLQLWVNLRSSEKMVEPQYQELKSEEIPKPSKDGVTVAVISGEALGIKSKVYTRTPTLYLDFKLDPGAKHSQPIPKGWTSFIYTISGDVYIGPDDAQQKIEPHHTAVLGEGDSVQVENKDPKRSHFVLIAGEPLREPVIQHGPFVMNTNEEISQAILDFRNAKNGFERAKTWKSKIGN [E103A], the “effect of a mutation on the interaction” value was “disrupting interaction”.
